Residue numbers refer to the chain shown, from its start. Names may count otherwise.

To fix the notation:
T1: hIL10RalphaFc (human, UniProt Q13651)
T1 chain: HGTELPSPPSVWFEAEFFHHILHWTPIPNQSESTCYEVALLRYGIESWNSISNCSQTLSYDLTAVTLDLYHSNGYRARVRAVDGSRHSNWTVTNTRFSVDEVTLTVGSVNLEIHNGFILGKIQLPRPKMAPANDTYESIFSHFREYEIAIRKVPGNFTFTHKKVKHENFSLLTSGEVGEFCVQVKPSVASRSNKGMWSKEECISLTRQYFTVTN

T2: mIL10RalphaFc (mouse, UniProt Q61727)
T2 chain: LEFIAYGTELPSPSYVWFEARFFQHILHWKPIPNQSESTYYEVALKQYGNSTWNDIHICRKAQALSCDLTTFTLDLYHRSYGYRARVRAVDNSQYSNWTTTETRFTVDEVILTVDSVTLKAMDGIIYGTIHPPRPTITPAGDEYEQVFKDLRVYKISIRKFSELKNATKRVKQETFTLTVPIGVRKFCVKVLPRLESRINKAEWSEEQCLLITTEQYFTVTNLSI

B1: hIL10 T100L (protein)
chain: SPGQGTQSENSCTHFPGNLPNMLRDLRDAFSRVKTFFQMKDQLDNLLLKESLLEDFKGYLGCQALSEMIQFYLEEVMPQAENQDPDIKAHVNSLGENLKLLRLRLRRCHRFLPCENKSKAVEQVKNAFNKLQEKGIYKAMSEFDIFINYIEAYMTMKIRN
B2: hIL10 WT (protein)
chain: B1 chain with L100T
B3: h_SS0052_AA (hIL10 WT fused) (protein)
chain: SPGQGTQSENSCTHFPGNLPNMLRDLRDAFSRVKTFFQMKDQLDNLLLKESLLEDFKGYLGCQALSEMIQFYLEEVMPQAENQDPDIKAHVNSLGENLKTLRLRLRRCHRFLPCENKSKAVEQVKNAFNKLQEKGIYKAMSEFDIFINYIEAYMTMKIRNSPGQGTQSENSCTHFPGNLPNMLRDLRDAFSRVKTFFQMKDQLDNLLLKESLLEDFKGYLGCQALSEMIQFYLEEVMPQAENQDPDIKAHVNSLGENLKTLRLRLRRCHRFLPCENKSKAVEQVKNAFNKLQEKGIYKAMSEFDIFINYIEAYMTMKIRN
B4: h_SS0053_AA (hIL10 T100L fused) (protein)
chain: SPGQGTQSENSCTHFPGNLPNMLRDLRDAFSRVKTFFQMKDQLDNLLLKESLLEDFKGYLGCQALSEMIQFYLEEVMPQAENQDPDIKAHVNSLGENLKLLRLRLRRCHRFLPCENKSKAVEQVKNAFNKLQEKGIYKAMSEFDIFINYIEAYMTMKIRNSPGQGTQSENSCTHFPGNLPNMLRDLRDAFSRVKTFFQMKDQLDNLLLKESLLEDFKGYLGCQALSEMIQFYLEEVMPQAENQDPDIKAHVNSLGENLKLLRLRLRRCHRFLPCENKSKAVEQVKNAFNKLQEKGIYKAMSEFDIFINYIEAYMTMKIRNGGSHHHHHHHH
B5: mIL10 WT (protein)
chain: SRGQYSREDNNCTHFPVGQSHMLLELRTAFSQVKTFFQTKDQLDNILLTDSLMQDFKGYLGCQALSEMIQFYLVEVMPQAEKHGPEIKEHLNSLGEKLKTLRMRLRRCHRFLPCENKSKAVEQVKSDFNKLQDQGVYKAMNEFDIFINCIEAYMMIKMKS
B6: mIL10 T100L (protein)
chain: B5 chain with T100L
B7: WC163_AA (mIL10 WT fused) (protein)
chain: GNCTHFPVGQSHMLLELRTAFSQVKTFFQTKDQLDNILLTDSLMQDFKGYLGCQALSEMIQFYLVEVMPQAEKHGPEIKEHLNSLGEKLKTLRMRLRRCHRFLPCENKSKAVEQVKSDFNKLQDQGVYKAMNEFDIFINCIEAYMMIKMKSSRGQYSREDNQYSREDNSCTHFPVGQSHMLLELRTAFSQVKTFFQTKDQLDNILLTDSLMQDFKGYLGCQALSEMIQFYLVEVMPQAEKHGPEIKEHLNSLGEKLKTLRMRLRRCHRFLPCENKSKAVEQVKSDFNKLQDQGVYKAMNEFDIFINCIEAYMMIKMKS
B8: SS0051_AA (mIL10 T100L fused) (protein)
chain: B7 chain with T91L, T258L

One assay deals with T1, hIL10RalphaFc. In words: SPR. Background: SPR reads the build-up and loss of mass on a sensor chip optically.
Regarding B1, the Kd – broadly, the concentration at which binding is half-saturated – amounted to 0.26 nM.

B2 showed a Kd of 0.06 nM.

For the molecule B3, the Kd was determined as 0.11 nM.

On to B4, for which the affinity, expressed as Kd, was 0.07 nM.

The next assay addresses T2, mIL10RalphaFc. In words: SPR.
In the case of B5, the Kd worked out at 0.81 nM.

With B6, the affinity, expressed as Kd, was 1.92 nM.

B7: the Kd was found to be 0.86 nM.

B8: the Kd came to 0.73 nM.

Values taken from US20260365708 (published 2026).
